# Test results taken from US20210355194A1 (TWIST BIOSCIENCE, published 2021).
# Where two headings read alike, the source gives them in different places.
# B1: 2-19 (antibody, V domains shown)
# VH: EVQLLESGGGLVQPGGSLRLSCAASGFTFSSYTMSWVRQAPGKGLEWVSVISGSGGSTYYADSVKGRFTISRDNSKNTLYLQMNSLRAEDTAVYYCAREGYRDYLWYFDLWGQGTLVTVSS
# VL: DIQMTQSPSSLSASVGDRVTITCTGTSTDVGSYNLVSWYQQKPGKAPKLLIYEGTKRPSGVPSRFSGSGSGTDFTLTISSLQPEDFATYYCCSYAGSYTSVVFGQGTKVEIK
# notes: also called variant 2-19
# B2: 2-12 (antibody, V domains shown)
# VH: EVQLLESGGGLVQPGGSLRLSCAASGFTFSDYPMNWVRQAPGKGLEWVSTISGSGGITFYADSVKGRFTISRDNSKNTLYLQMNSLRAEDTAVYYCVRHDEYSFDYWGQGTLVTVSS
# VL: DIQMTQSPSSLSASVGDRVTITCRASQSIDNYLNWYQQKPGKAPKLLIYGVSALQSGVPSRFSGSGSGTDFTLTISSLQPEDFATYYCQQSHSAPPYFFGQGTKVEIK
# notes: also called variant 2-12
# B3: variant 2-4 (antibody, V domains shown)
# VH: EVQLLESGGGLVQPGGSLRLSCAASGFTFSDFAMAWVRQAPGKGLEWVSAISGSGDITYYADSVKGRFTISRDNSKNTLYLQMNSLRAEDTAVYYCAREADGLHSPWHFDLWGQGTLVTVSS
# VL: DIQMTQSPSSLSASVGDRVTITCRASQSIDTYLNWYQQKPGKAPKLLIYAASALASGVPSRFSGSGSGTDFTLTISSLQPEDFATYYCQQSYSAPPYTFGQGTKVEIK
# B4: variant 2-5 (antibody, V domains shown)
# VH: EVQLLESGGGLVQPGGSLRLSCAASGFTFSDFAMAWVRQAPGKGLEWVSAISGSGDITYYADSVKGRFTISRDNSKNTLYLQMNSLRAEDTAVYYCAREADGLHSPWHFDLWGQGTLVTVSS
# VL: DIQMTQSPSSLSASVGDRVTITCRASQSIHTYLNWYQQKPGKAPKLLIYAASALASGVPSRFSGSGSGTDFTLTISSLQPEDFATYYCQQSYSAPPYTFGQGTKVEIK
# B5: variant 2-8 (antibody, V domains shown)
# VH: EVQLLESGGGLVQPGGSLRLSCAASGFTFSDFAMAWVRQAPGKGLEWVSAISGSGDITYYADSVKGRFTISRDNSKNTLYLQMNSLRAEDTAVYYCAREADGLHSPWHFDLWGQGTLVTVSS
# VL: DIQMTQSPSSLSASVGDRVTITCRASQSIDTYLNWYQQKPGKAPKLLIYAASALASGVPSRFSGSGSGTDFTLTISSLQPEDFATYYCQQSYSAPPYTFGQGTKVEIK
# B6: variant 2-12 (antibody, V domains shown)
# VH: EVQLLESGGGLVQPGGSLRLSCAASGFTFSDYPMNWVRQAPGKGLEWVSTISGSGGITFYADSVKGRFTISRDNSKNTLYLQMNSLRAEDTAVYYCVRHDEYSFDYWGQGTLVTVSS
# VL: DIQMTQSPSSLSASVGDRVTITCRASQSIDNYLNWYQQKPGKAPKLLIYGVSALQSGVPSRFSGSGSGTDFTLTISSLQPEDFATYYCQQSHSAPPYFFGQGTKVEIK
# B7: variant 2-13 (antibody, V domains shown)
# VH: EVQLLESGGGLVQPGGSLRLSCAASGFTFSDYPMNWVRQAPGKGLEWVSAISGSGDNTYYADSVKGRFTISRDNSKNTLYLQMNSLRAEDTAVYYCVRHDEYSFDYWGQGTLVTVSS
# VL: DIQMTQSPSSLSASVGDRVTITCRASQSIDTYLNWYQQKPGKAPKLLIYGASALESGVPSRFSGSGSGTDFTLTISSLQPEDFATYYCQQSHSAPPYFFGQGTKVEIK
# B8: 2-13 (antibody, V domains shown)
# VH: EVQLLESGGGLVQPGGSLRLSCAASGFTFSDYPMNWVRQAPGKGLEWVSAISGSGDNTYYADSVKGRFTISRDNSKNTLYLQMNSLRAEDTAVYYCVRHDEYSFDYWGQGTLVTVSS
# VL: DIQMTQSPSSLSASVGDRVTITCRASQSIDTYLNWYQQKPGKAPKLLIYGASALESGVPSRFSGSGSGTDFTLTISSLQPEDFATYYCQQSHSAPPYFFGQGTKVEIK
# notes: also called variant 2-13
# B9: variant 2-5 (antibody, V domains shown)
# VH: EVQLLESGGGLVQPGGSLRLSCAASGFTFSDFAMAWVRQAPGKGLEWVSAISGSGDITYYADSVKGRFTISRDNSKNTLYLQMNSLRAEDTAVYYCAREADGLHSPWHFDLWGQGTLVTVSS
# VL: DIQMTQSPSSLSASVGDRVTITCRASQSIHTYLNWYQQKPGKAPKLLIYAASALASGVPSRFSGSGSGTDFTLTISSLQPEDFATYYCQQSYSAPPYTFGQGTKVEIK
# B10: variant 5-37 (Fc fusion)
# VHH: EVQLVESGGGLVQPGGSLRLSCAASGSTFSINAMGWFRQAPGKEREFVGGISRSGATTNYADSVKGRFTISADNSKNTAYLQMNSLKPEDTAVYYCAADGVPEYSDYASGPVWGQGTLVTVSS
# B11: variant 5-1 (Fc fusion)
# VHH: EVQLVESGGGLVQPGGSLRLSCAASGGTFSSIGMGWFRQAPGKEREFVAAISWDGGATAYADSVKGRFTISADNSKNTAYLQMNSLKPEDTAVYYCAKEDVGKPFDWGQGTLVTVSS
# B12: variant 5-34 (Fc fusion)
# VHH: EVQLVESGGGLVQPGGSLRLSCAASGRTFSRYIMGWFRQAPGKEREFVAAISWSGGDNTYYADSVKGRFTISADNSKNTAYLQMNSLKPEDTAVYYCAAYRIVVGGTSPGDWRWGQGTLVTVSS
# B13: variant 2-2 (antibody, V domains shown)
# VH: EVQLLESGGGLVQPGGSLRLSCAASGFTFSRHAMNWVRQAPGKGLEWVSGISGSGDETYYADSVKGRFTISRDNSKNTLYLQMNSLRAEDTAVYYCARDLPASYYDSSGYYWHNGMDVWGQGTLVTVSS
# VL: DIQMTQSPSSLSASVGDRVTITCRASQTINTYLNWYQQKPGKAPKLLIYSASTLQSGVPSRFSGSGSGTDFTLTISSLQPEDFATYYCQQSYSTFTFGQGTKVEIK
# B14: variant 2-2 (antibody, V domains shown)
# VH: EVQLLESGGGLVQPGGSLRLSCAASGFTFSRHAMNWVRQAPGKGLEWVSGISGSGDETYYADSVKGRFTISRDNSKNTLYLQMNSLRAEDTAVYYCARDLPASYYDSSGYYWHNGMDVWGQGTLVTVSS
# VL: DIQMTQSPSSLSASVGDRVTITCRASQTINTYLNWYQQKPGKAPKLLIYSASTLQSGVPSRFSGSGSGTDFTLTISSLQPEDFATYYCQQSYSTFTFGQGTKVEIK
# B15: variant 5-20 (Fc fusion)
# VHH: EVQLVESGGGLVQPGGSLRLSCAASGRTIVPYTMGWFRQAPGKERELVAAISPSAFTEYADSVKGRFTISADNSKNTAYLQMNSLKPEDTAVYYCAARRWGYDWGQGTLVTVSS
# B16: 2-18 (antibody, V domains shown)
# VH: EVQLLESGGGLVQPGGSLRLSCAASGFTFSSYAMYWVRQAPGKGLEWVSAISGSAGSTYYADSVKGRFTISRDNSKNTLYLQMNSLRAEDTAVYYCARDTNDFWSGYSIFDPWGQGTLVTVSS
# VL: DIQMTQSPSSLSASVGDRVTITCTGTSSDIGSYNLVSWYQQKPGKAPKLLIYEGTKRPSGVPSRFSGSGSGTDFTLTISSLQPEDFATYYCCSYAGSRTYVFGQGTKVEIK
# notes: also called variant 2-18
# Tests used:
# [1] = biological target: T1, SARS-CoV-2 S1 protein (SARS-CoV-2, UniProt P0DTC2 16-685); test: phage ELISA screen on S1, mean
# T1 construct: also called SARS-CoV-2 Spike Glycoprotein S1; S1 (subunit 1)
# [2] = biological target: T1, SARS-CoV-2 S1 protein; test: phage ELISA screen on S1, mean; remark: listed apart in the source
# [3] = biological target: T1, SARS-CoV-2 S1 protein; test: inhibitor ELISA, competitor ACE2
# [4] = biological target: T2, COVID S1 RBM Fc fusion (Antigen 2) (SARS-CoV-2, UniProt P0DTC2 437-508); test: phage ELISA
# T2 construct: domain: S1 RBM
# [5] = biological target: T3, S1-Fc (SARS-CoV-2, UniProt P0DTC2 14-685); test: phage ELISA
# T3 construct: also called S1 Fc fusion protein
# [6] = biological target: SARS-CoV-2 S1 (subunit 1) protein (SARS-CoV-2, UniProt P0DTC2 16-685); test: phage ELISA
# [7] = biological target: T4, COVID S1 RBD Fc fusion (Antigen 1) (SARS-CoV-2, UniProt P0DTC2 319-541); test: phage ELISA
# T4 construct: domain: S1 RBD
# [8] = biological target: T5, SARS-COV2-S1 RBD (mouse IgG2Fc tag) (SARS-CoV-2, UniProt P0DTC2 319-537); test: FACS, blocks S1 RBD-mFc binding to ACE2 on Vero E6
# [9] = biological target: T5, SARS-COV2-S1 RBD (mouse IgG2Fc tag); test: FACS, blocks S1 RBD-mFc binding to ACE2 on Vero E6; remark: listed apart in the source
# [10] = biological target: T5, SARS-COV2-S1 RBD (mouse IgG2Fc tag); test: column not explained; likely FACS, S1 RBD on Vero E6
# [11] = biological target: T6, Acro SARS-CoV-2 (COVID-19) S1 protein (SARS-CoV-2, UniProt P0DTC2 16-685); test: SPR
# T6 construct: also called SARS-CoV-2 S1
binder,measurement,setting,value
B1,ELISA(Avg),[1],21.7 fold over background
same,ELISA(Avg),[2],21.7 fold over background
B2,IC50,[3],1 nM
same,ELISA(Avg),[2],18.2 fold over background
B3,"specificity ELISA, fold over background",[4],1.2 fold over background
same,"specificity ELISA, percent binding relative to Acro S1",[4],3.1%
same,"specificity ELISA, fold over background",[5],7.2 fold over background
same,"specificity ELISA, percent binding relative to Acro S1",[5],19%
same,"screening ELISA (Avg), fold over background",[6],15.5 fold over background
same,"specificity ELISA, fold over background",[7],38.8 fold over background
same,"specificity ELISA, percent binding relative to Acro S1",[7],103%
B4,IC50,[8],2.15 nM
same,IC50,[9],2.15 nM
B5,"specificity ELISA, fold over background",[4],1.1 fold over background
same,"specificity ELISA, percent binding relative to Acro S1",[4],3.1%
same,"specificity ELISA, fold over background",[5],5.4 fold over background
same,"specificity ELISA, percent binding relative to Acro S1",[5],15%
same,"screening ELISA (Avg), fold over background",[6],32.4 fold over background
same,"specificity ELISA, fold over background",[7],36.5 fold over background
same,"specificity ELISA, percent binding relative to Acro S1",[7],102%
B6,"specificity ELISA, fold over background",[4],1.1 fold over background
same,"specificity ELISA, percent binding relative to Acro S1",[4],2.9%
same,"specificity ELISA, fold over background",[5],14.7 fold over background
same,"specificity ELISA, percent binding relative to Acro S1",[5],37%
same,"screening ELISA (Avg), fold over background",[6],18.2 fold over background
same,"specificity ELISA, fold over background",[7],40.3 fold over background
same,"specificity ELISA, percent binding relative to Acro S1",[7],101%
B7,"specificity ELISA, fold over background",[4],0.9 fold over background
same,"specificity ELISA, percent binding relative to Acro S1",[4],3.1%
same,"specificity ELISA, fold over background",[5],3.7 fold over background
same,"specificity ELISA, percent binding relative to Acro S1",[5],13.4%
same,"screening ELISA (Avg), fold over background",[6],19.1 fold over background
same,"specificity ELISA, fold over background",[7],32.1 fold over background
same,"specificity ELISA, percent binding relative to Acro S1",[7],118%
B8,IC50,[3],45 nM
same,ELISA(Avg),[2],19.1 fold over background
B9,"specificity ELISA, fold over background",[4],1.1 fold over background
same,"specificity ELISA, percent binding relative to Acro S1",[4],3%
same,"specificity ELISA, fold over background",[5],24.3 fold over background
same,"specificity ELISA, percent binding relative to Acro S1",[5],63.3%
same,"screening ELISA (Avg), fold over background",[6],30.8 fold over background
same,"specificity ELISA, fold over background",[7],35.9 fold over background
same,"specificity ELISA, percent binding relative to Acro S1",[7],93.7%
B10,IC50,[8],1.01 nM
same,MFI Fold Decrease,[10],8.19 fold
same,Kd,[11],30.2 nM
B11,IC50,[8],0.75 nM
same,MFI Fold Decrease,[10],10 fold
same,Kd,[11],15.1 nM
B12,IC50,[8],1.21 nM
same,MFI Fold Decrease,[10],5.69 fold
B13,"specificity ELISA, fold over background",[4],1.1 fold over background
same,"specificity ELISA, percent binding relative to Acro S1",[4],2.8%
same,"specificity ELISA, fold over background",[5],4.7 fold over background
same,"specificity ELISA, percent binding relative to Acro S1",[5],12%
same,"screening ELISA (Avg), fold over background",[6],23.4 fold over background
same,"specificity ELISA, fold over background",[7],39.6 fold over background
same,"specificity ELISA, percent binding relative to Acro S1",[7],100%
B14,IC50,[8],0.56 nM
same,IC50,[9],0.56 nM
B15,IC50,[8],1.23 nM
same,MFI Fold Decrease,[10],12.4 fold
same,Kd,[11],14.3 nM
B16,ELISA(Avg),[1],43 fold over background
same,ELISA(Avg),[2],43 fold over background
